We go through 1 molecule from PMC11068011 (Science Advances, 2024).

This experiment concerns the target T1, Recombinant p47-GST (human, UniProt Q9UNZ2 1-370).
T1 construct: p47 (NSFL1C), recombinant, bought (Novus H00055968-P01); source: bought: Novus, H00055968-P01, purified from wheat germ
T1 sequence (looked up): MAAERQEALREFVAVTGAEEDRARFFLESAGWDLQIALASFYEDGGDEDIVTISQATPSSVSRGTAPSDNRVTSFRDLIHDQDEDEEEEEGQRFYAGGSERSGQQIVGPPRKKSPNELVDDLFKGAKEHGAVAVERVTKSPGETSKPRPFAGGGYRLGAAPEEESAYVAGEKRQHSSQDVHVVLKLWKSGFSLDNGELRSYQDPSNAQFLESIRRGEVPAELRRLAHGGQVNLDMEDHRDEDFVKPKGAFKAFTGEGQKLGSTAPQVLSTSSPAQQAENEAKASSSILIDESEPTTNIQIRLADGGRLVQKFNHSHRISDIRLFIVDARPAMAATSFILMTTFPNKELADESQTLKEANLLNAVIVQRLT
Description: pull-down; In vitro binding assay: 1 μg p47-GST and 2 μg p37 (WT or SHP), with or without 2 μg purified VCP, 1 hour at 4°C, then glutathione beads 1 hour; 25 mM Hepes pH 7.4, 150 mM NaCl, 0.01% Triton X-100, 5% glycerol. The following applies: both partners purified.

B1: purified WT p37 (natural protein, human, UniProt Q14CS0 1-331, looked up)
chain: MAEGGGPEPGEQERRSSGPRPPSARDLQLALAELYEDEVKCKSSKSNRPKATVFKSPRTPPQRFYSSEHEYSGLNIVRPSTGKIVNELFKEAREHGAVPLNEATRASGDDKSKSFTGGGYRLGSSFCKRSEYIYGENQLQDVQILLKLWSNGFSLDDGELRPYNEPTNAQFLESVKRGEIPLELQRLVHGGQVNLDMEDHQDQEYIKPRLRFKAFSGEGQKLGSLTPEIVSTPSSPEEEDKSILNAVVLIDDSVPTTKIQIRLADGSRLIQRFNSTHRILDVRNFIVQSRPEFAALDFILVTSFPNKELTDESLTLLEADILNTVLLQQLK
notes: p37 (UBXN2B), human, wild type, from pGEX-6P-1 p37; also called p37 WT; p37WT; source: E. coli Rosetta 2 BL21 (DE3), purified (glutathione sepharose, eluted by PreScission cleavage)
As for B1, the binding result is given as “binds”.
